The record followed here is the supplement of paper PMC12764529.

Series [1] in a line: folding stability dG unfold from trypsin proteolysis; higher = more stable. In a few lines:
(§1)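 How resistant each design was to proteolysis was captured as K50, inferred by Bayesian fitting of sequencing counts. Unfolding free energy was then derived relative to a sequence-predicted unfolded-state K50 and a shared folded-state K50, per protease or combined. Digestion used trypsin and chymotrypsin at 11 threefold-diluted concentrations plus a no-protease condition, on mini-proteins under 80 residues without cysteine in a PA-tagged cDNA display construct. Designs were kept only when AlphaFold2 dimer inter-PAE was above 15.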

A short description of series [2]: folding stability dG unfold from chymotrypsin proteolysis; higher = more stable. In a few lines:
as §1

The nature of series [3]: folding stability dG unfold (combined trypsin and chymotrypsin); higher = more stable. In a few lines: as §1

± gives the half width of the 95% confidence interval.

“SMVTVETRPEEVLPDAEGRLRRVTVVITFPDGKTLTVDMEFPPDVSDEEVEERLRALVEELGVESIELLGSA [r9_1203_JUSTAS]”: the “folding stability dG unfold” value was determined as 3.7 ± 0.11 kcal/mol in series [1], 1.81 ± 0.086 kcal/mol in series [2] and 2.99 ± 0.17 kcal/mol in series [3].
Consider “SMVTVTFPDASPEEIRAAIEAHPDRDVVLVTAPGKEEELEKILKEYDYTKEEKALPDGRKVRVMKVKVPRSA [r9_1138_JUSTAS]”, for which the “folding stability dG unfold” value was 0.784 ± 0.14 kcal/mol in series [1], 0.176 ± 0.42 kcal/mol in series [2] and 0.462 ± 0.25 kcal/mol in series [3].
For “SMYKVKVKLLITNPKTGEKLEVEVEATLEEAEKLAEELEKKYPELNWKVEIKEIEIYPIPKPVLVKPGEASA [r9_14_TrMRF]”, the “folding stability dG unfold” value in series [1] is 2.45 ± 0.34 kcal/mol; in series [2] it was 3.51 ± 0.096 kcal/mol; in series [3], 3.46 ± 0.22 kcal/mol.
For the sequence “SNFPPGQQIKFTFRLPDNGMKIKIEVHVHPDGYVQVRMERENPDNGKRVKITFYVPGPTLDEILDFIEQFSA [r9_618_TrROS]”, the “folding stability dG unfold” value in series [1] stood at 2.97 ± 0.09 kcal/mol; in series [2] it was 3.852 ± 0.038 kcal/mol; in series [3] it was 3.52 ± 0.08 kcal/mol.
As to “SNIEIEPYQPGEPREYEIPPGKLKITFYQDPGPMYIRVKDPGNGEPVEIPIPMERGDWDNAAKKILKAIKSA [r9_982_TrROS]”, the “folding stability dG unfold” value in series [1] came to 0.81 ± 0.14 kcal/mol; in series [2], 0.454 ± 0.27 kcal/mol; in series [3], 0.802 ± 0.32 kcal/mol.
Take “SNIRIEVDPPNGVIRVTYTFPGDSLSDIKDEIVEYIQKLGFPIEVDIDKIEPMNNYWRVTAYIKIPPGAISA [r9_347_TrROS]”: the “folding stability dG unfold” value in series [1] is 3.21 ± 0.095 kcal/mol; in series [2], 4.56 ± 0.056 kcal/mol; in series [3] it was 4.18 ± 0.086 kcal/mol.
On to “SNNNEVTIEIMIMFKYPRPEYDPDNGKPEPEPVYFMFPIKIEGKADDPEDAKRAADNILDRFLKDPDYIMSA [r9_77_TrROS]”, for which the “folding stability dG unfold” value in series [1] was found to be 1.79 ± 0.12 kcal/mol; in series [2], 2.95 ± 0.045 kcal/mol; in series [3], 2.6 ± 0.17 kcal/mol.
For “SNPDDQKKAKPIEIEIEIDFKPERERDPDGKERPRFEFDIEIKIPPGAPLDMITIYIRFDDWPFMITIPASA [r9_488_TrROS]”, the “folding stability dG unfold” value in series [1] amounted to 1.8 ± 0.075 kcal/mol; in series [2] it was 3.42 ± 0.15 kcal/mol; in series [3], 2.95 ± 0.28 kcal/mol.
With “SNPNIKVTTTSETLPDNTLRTTETNPDTGTVTETLVPTDGNGPKTVKTTTTTTDTSTGKKTITTTTTTIPVS [r1_45_JUSTAS]”, the “folding stability dG unfold” value in series [1] is -1.33 ± 0.26 kcal/mol; in series [2], 0.99 ± 0.02 kcal/mol; in series [3], 0.529 ± 0.085 kcal/mol.
“SPAEINIEFDPEEGRLRIKVKLEWPGGDPEPIATHEVPIGNNRYITYPIYKHPDGPWRIEDIDIMPPDELSA [r9_780_TrROS]”: the results for the “folding stability dG unfold” value in series [1], in series [2] and in series [3] were 0.283 ± 0.14 kcal/mol, 1 ± 0.15 kcal/mol and 0.727 ± 0.35 kcal/mol, respectively.
Regarding “SPAKPVPIEITMHGDGMFEIRLPNGKEISFPNPDGQWAQATVDPDEGTIEIEMYNNGKRHTFEIPLPPNDSA [r9_226_TrROS]”, the “folding stability dG unfold” value in series [1] came to 0.153 ± 0.14 kcal/mol; in series [2] it was 0.499 ± 0.17 kcal/mol; in series [3], 0.459 ± 0.16 kcal/mol.
As for “SPDPGMKPRPMYMIRIKIEVTTPDGKKRGKHDFIIQSPEEAKEFIEELAENRGMKIKKIDIDIYPMPWLKSA [r9_1226_TrROS]”, the “folding stability dG unfold” value in series [1] worked out at 1.5 ± 0.044 kcal/mol; in series [2], 2.56 ± 0.061 kcal/mol; in series [3] it was 2.18 ± 0.1 kcal/mol.
With “SPDVKILDIERHPDDGSISIKLKFPDGWPVTLHYNPDGSHTIHNPGNGAPIQIKYDGNQLKIELPDNLKFSA [r9_233_TrROS]”, the “folding stability dG unfold” value in series [1] came to 0.478 ± 0.023 kcal/mol; in series [2] it was 0.868 ± 0.086 kcal/mol; in series [3] it was 0.729 ± 0.083 kcal/mol.
Consider “SPEAVAEALRKLGFDLDIERIDVEPLPDGTYRVTVTRGDKPVFTVTVTAPPPPPPVFVVRDADGTERLVRSA [r9_442_TrMRF]”, for which the figures for the “folding stability dG unfold” value in series [1], in series [2] and in series [3] were 0.704 ± 0.054 kcal/mol, 2.4 ± 0.03 kcal/mol and 1.98 ± 0.036 kcal/mol, respectively.
“SPEKEIKVKYELPEPGSGPVKVEATFTINPKTGEVKMPVTLTRPGSSSQVNLPEELLKELKNKVLEELGKSA [r9_1136_JUSTAS]”: the figures for the “folding stability dG unfold” value in series [1], in series [2] and in series [3] were -0.621 ± 0.29 kcal/mol, 0.795 ± 0.089 kcal/mol and 0.442 ± 0.083 kcal/mol, respectively.
For “SPEVPPGKTLEREFKGVPVRLTREEESGTIHITVYPPTDPSKPLYEAEFSPDELRPIPLPPEVAAALAAESA [r9_1051_JUSTAS]” the same measures were -0.681 ± 0.24 kcal/mol, 0.0553 ± 0.1 kcal/mol and -0.13 ± 0.16 kcal/mol.
For “SPFRLKIEIDEVGPAGQEIRVKLEIWSDNKPIEMEHTIKVPNGRLYRIRMNIYMPPDGNFQLNLDVYPLDSA [r9_255_TrROS]” the same measures were 4.29 ± 0.23 kcal/mol, 6.34 ± 0.37 kcal/mol and > 6 kcal/mol.
Turning to “SPIYVFIEKTNNKRTIMIQNPENGWWVEIKFNGGEITFPIDSVEDFLDELKDLGWPIEITKIRPLPPGQLSA [r9_1102_TrROS]”, the “folding stability dG unfold” value in series [1] is 2.79 ± 0.17 kcal/mol; in series [2] it was 3.32 ± 0.12 kcal/mol; in series [3], 3.16 ± 0.16 kcal/mol.
For “SPKEPQKVRIRIRNPENGKPIWEFDIWFPPDGGVKVKIEHPNEKHEYPMPADEALDFLENHPFKIEEIEVSA [r9_470_TrROS]”, the “folding stability dG unfold” value in series [1] amounted to 0.739 ± 0.18 kcal/mol; in series [2], 0.301 ± 0.2 kcal/mol; in series [3], 0.567 ± 0.33 kcal/mol.
For “SPLERLLRAILNAPADTTIVVPLPDDLVAVIRIEPATTELDGVPYRFLVARIEIRNPDGVLLGELTLVLPLS [r1_386_TrMRF]”, the entries for the “folding stability dG unfold” value in series [1], in series [2] and in series [3] were 3.88 ± 0.086 kcal/mol, 5.78 ± 0.091 kcal/mol and 5.63 ± 0.11 kcal/mol, respectively.
For “SPLKPGDVYTEPGGPLLRVEKVTLSEDPNKFPKKLEIELVPIPPPTPTLEEYTLPNGERRTLVLFEFDGPSA [r9_914_JUSTAS]” the same measures were -0.308 ± 0.31 kcal/mol, -1.17e-05 ± 0.5 kcal/mol and -0.217 ± 0.42 kcal/mol.
In the case of “SPLTLTFENPENGIRVELVFDPETPEVHAKVYAPNGELLSEETFEVEEKKITLRFNLEGKEFELEIELDESA [r9_385_TrMRF]”, the figures for the “folding stability dG unfold” value in series [1], in series [2] and in series [3] were 3.86 ± 0.12 kcal/mol, 4.25 ± 0.082 kcal/mol and 4.16 ± 0.11 kcal/mol, respectively.
Regarding “SPNFERYEHTIEIELPNGRRIKIDVEMYRPPDGNPWARIKIEVEDNNGEPKKKDIWMPMNDAEKAIEDLLSA [r9_189_TrROS]”, the “folding stability dG unfold” value in series [1] came to 1.9 ± 0.14 kcal/mol; in series [2], 1.85 ± 0.093 kcal/mol; in series [3], 1.99 ± 0.43 kcal/mol.
On to “SPPGLRIRIESPDNGEPIPFPIPPNVEVDVKRDKNGNFIATIKIQNPENGKKWTIEIDAPMRIVEIEPVPSA [r9_467_TrROS]”, for which the “folding stability dG unfold” value in series [1] worked out at 1.6 ± 0.076 kcal/mol; in series [2] it was 3.35 ± 0.16 kcal/mol; in series [3], 2.76 ± 0.21 kcal/mol.
With “SPPHWMIMPTVERKDPNGEKKTVTYMIPVPPGNWDKMLDNIADEAGDPDLKIKEIEPSKNGFIMIKLKVKSA [r9_1101_TrROS]”, the “folding stability dG unfold” value was 0.497 ± 0.17 kcal/mol in series [1], 0.604 ± 0.48 kcal/mol in series [2] and 0.0989 ± 0.54 kcal/mol in series [3].
In the case of “SPPIEIKPAPENYLIAKIIDPKTNKVYYILIPKDAKLDQPALVYHPDKKEYIPLKEILDLLKKGYPLSISSA [r9_250_TrMRF]”, the “folding stability dG unfold” value in series [1] came to 2.09 ± 0.075 kcal/mol; in series [2], 2.43 ± 0.059 kcal/mol; in series [3] it was 2.35 ± 0.14 kcal/mol.
Regarding “SPPITFFRVPAEYDEPNGKRTIKVRIWRIRDVEKDPNGGPKMDMEPQPVTFKLPVPPGAPIPPGDWIFAFSA [r9_277_TrROS]”, the results for the “folding stability dG unfold” value in series [1], in series [2] and in series [3] were 1.57 ± 0.16 kcal/mol, 0.315 ± 0.35 kcal/mol and 0.831 ± 0.34 kcal/mol, respectively.
Regarding “SPPITIEIEYERNPDNGMFPLKVKAWNPDGEPIGEREIPFKGSPEEMRERAMKEAKELADKNGWPIEIEWSA [r9_31_TrROS]”, the “folding stability dG unfold” value is -0.436 ± 0.17 kcal/mol in series [1], 0.637 ± 0.18 kcal/mol in series [2] and 0.331 ± 0.19 kcal/mol in series [3].
Turning to “SPPNFEVKEVEIPVPWEEIKELLPPGFTDIEPTGDRWTLHFKHPGYFVMIEIQWDPEDNQFPVKISVFKMSA [r9_604_TrROS]”, the “folding stability dG unfold” value in series [1] is 2.59 ± 0.11 kcal/mol; in series [2], 3.76 ± 0.054 kcal/mol; in series [3] it was 3.35 ± 0.19 kcal/mol.
In the case of “SPPNFRMEQEEIEIEIRFPDGWRVSVEIEIHRMRFPDGDEMLHIDIKVEADPNNPGMRKLAKNLVEEIINSA [r9_908_TrROS]”, the results for the “folding stability dG unfold” value in series [1], in series [2] and in series [3] were 1.24 ± 0.21 kcal/mol, 2.14 ± 0.21 kcal/mol and 1.85 ± 0.41 kcal/mol, respectively.
In the case of “SPRIEVRKLPDGTELVRIEIPTPEGNPVVVEATVTYDPETGTVTQEVTLTDPNVPPEVKALLESFTLTVPSA [r9_715_JUSTAS]”, the “folding stability dG unfold” value in series [1] came out at 1.12 ± 0.019 kcal/mol; in series [2], 1.54 ± 0.028 kcal/mol; in series [3], 1.4 ± 0.042 kcal/mol.
With “SPSPAAKNMKPIRIRLRDPNGKKYKIENINVGPDGQFQIRIKFPGNTHTQTLPPGAPFELPPDRIEEVEISA [r9_993_TrROS]”, the “folding stability dG unfold” value in series [1] stood at 0.808 ± 0.079 kcal/mol; in series [2], 0.971 ± 0.2 kcal/mol; in series [3], 0.959 ± 0.092 kcal/mol.
As for “SPVPLDVPPGSRAVLVFRFPDGSRAVAVFDPVTGKATVTFYPPDGSKVTRTFDGPDLADLPPGVERIAPLSA [r9_1110_TrMRF]”, the “folding stability dG unfold” value in series [1] came out at 1.77 ± 0.11 kcal/mol; in series [2], 2.7 ± 0.12 kcal/mol; in series [3], 2.34 ± 0.14 kcal/mol.
In the case of “SPVVLPLTLGDRPILARLYPGEGVLEVRDPDGRLVGRATVTPNRINLVFRALDDDTTLVFELPVLPPDDPSA [r9_963_TrMRF]”, the “folding stability dG unfold” value in series [1] turned out to be 1.66 ± 0.07 kcal/mol; in series [2] it was 1.82 ± 0.045 kcal/mol; in series [3], 1.84 ± 0.12 kcal/mol.
For the sequence “SRKFLNDPNIDKVEPTIVIPMSPEERKELAQNLANGIYNYLREHGWPLPPNIEIKIIPFPSPEQMKKMMKSA [r9_204_TrROS]”, the “folding stability dG unfold” value is 0.6 ± 0.15 kcal/mol in series [1], 1.09 ± 0.17 kcal/mol in series [2] and 0.901 ± 0.13 kcal/mol in series [3].
Consider “SRKISIWIPPDDPMMTPEEIANKLAQQGYPVEIDDVEWNPENGWVVITVEIEEPNGEPIADIEVWIPWNDSA [r9_879_TrROS]”, for which the entries for the “folding stability dG unfold” value in series [1], in series [2] and in series [3] were 1.83 ± 0.098 kcal/mol, 1.6 ± 0.057 kcal/mol and 1.65 ± 0.19 kcal/mol, respectively.
